{"source": "paper PMC9323955", "about": "“Synthesis and Evaluation of Small Molecule Drug Conjugates Harnessing Thioester-Linked Maytansinoids” (Pharmaceutics, 2022)", "key": {"[1]": {"test": "Plasma stability, 24 h incubation with plasma (HPLC)", "format": "in vitro ADME", "experimental": "Zn8_DM1: 0H VS. 24H in plasma.\nZn10_DM4: 0H VS. 24H in plasma.\nSupporting Figure S1. Incubation of Linker-drug 3 and 4, conjugates Zn8_DM1 and\nZn10_DM4, DM1 and DM4 with plasma for 24 hrs. HPLC condition is listed below. […]"}, "[2]": {"test": "Pharmacokinetic study, single intravenous dose", "format": "in vivo, male ICR mice", "experimental": "Six-week-old male ICR mice from BioLASCO Taiwan were divided into three groups and administered intravenously at a 5 mg/kg dose. Blood samples were taken from each animal at time points 0.003, 0.083, 0.25, 0.5, 1, 2, 4, 6, 8, and 24 h and stored on ice (0–4 °C). The plasma was separated from the blood by centrifugation (in a Beckman Allegra 6R at 3000 rpm, 4 °C for 15 min) and stored under freezing conditions (−20 °C). Plasma and harvested tumor samples were stored at −80 °C until use. Fifty microliters of mouse plasma or tumor samples homogenized with ddH2O at a dilution ratio of 1:3 (w/v) with MiniBeadbeater-16 (BioSpec Products Inc., Bartlesville, OK, USA) were mixed with 100 μL of acetonitrile containing 250 ng/mL BPR0L187. The mixture was vortexed for 30 s and then centrifuged at 15,000× g for 20 min. The supernatant was transferred to a clean test tube, and 15 µL of supernatant was injected into the LC/MS/MS. Plasma samples were analyzed by liquid chromatography-tandem mass spectrometry (LC/MS/MS). The chromatography system was an Agilent 1200 series liquid chromatography system and an Agilent ZORBAX Eclipse XDB-C8 column (5 µm, 3.0 × 150 mm) connected with an MDS Sciex API4000 tandem mass spectrometer equipped with an ESI in forwarding scan mode at 600 °C. Data acquisition was performed by multiple reaction monitoring (MRM). A gradient system was used to separate the analytes from the IS. Mobile phase A was a 10 mM aqueous ammonium acetate solution containing 0.1% formic acid. Mobile phase B was acetonitrile. The gradient profile was as follows. 0.0–1.1 min, 50% B; 1.2–3.7 min, 55% B-90% B; 3.8–5.0 min, 90% B-50% B. The flow rate was 1.5 mL/min. The autosampler was set to inject 15 µL of the sample every 5 min."}, "[3]": {"test_system": "HCC1806 triple-negative breast cancer cells", "test": "MTS cell viability assay (72 h)", "format": "cell-based, human", "conditions": "HCC1806, conjugate vs DM1/DM4", "experimental": "HCC1806 cells were grown in RPMI 1640 medium, and MTS assays were performed to check cell viability. Cells (2500–3000 cells/well) were grown in flat-bottomed 96-well plates for 24 h, and then serial dilutions of the compound were added, and cells were allowed to incubate for a further 72 h. At the end of the 72-h incubation period, the medium was removed, and 100 μL of a solution including a mixture of MTS and PMS was added. The cells were incubated for 1.5 h at 37 °C in a humidified incubator with 5% CO2 to allow viable cells to convert tetrazolium salts to formazan. Conversion to formazan was measured by absorbance (490 nm) using a BioTek PowerWave-X absorbance microplate meter. The data collected were normalized using a DMSO-treated control (100% viability) and a background control (0% viability) to verify growth inhibition."}, "[4]": {"test_system": "HCC1806 human triple-negative breast cancer tumors", "test": "HCC1806 xenograft tumor efficacy", "format": "in vivo, female nude mice", "experimental": "Cancer cells suspended in RPMI 1640 medium (11835-030, Thermo Fisher Scientific, Waltham, MA, USA) were mixed with Matrigel™ (356237, BD Biosciences, Franklin Lakes, NJ, USA) in a 1:1 ratio. Human triple-negative breast cancer HCC1806 (1 × 10^6 cells) cells were inoculated subcutaneously into the left flank of 6-week-old female nude mice (BioLASCO Taiwan, Taipei, Taiwan) using a 1 mL syringe with a 24G needle (AN-2425R, Terumo Medical Corp., Tokyo, Japan). Tumor dimensions were measured twice weekly using electronic calipers (FOW54-200-777, PRO-MAX), and the volume of tumor grown subcutaneously (mm^3) was calculated by the formula Volume = (length × width^2)/2. A combination of 10% DMA/20% Cremophor EL/70% 5% dextrose injection (D5W) was formulated to treat HCC1806 xenograft tumors. Mice with HCC1806 tumors were grouped and administered the indicated dosing regimen of 1 mg/kg for the conjugate and 0.3 mg/kg for the cytotoxic payloads DM1 and DM4 twice-weekly (day 1 and day 4) for 2 weeks when the mean tumor volume was approximately 200–250 mm^3 or 850–900 mm^3 (large tumors). The conjugate dose of 2 mg/kg was administered weekly for the large tumor study. The body weight and tumor volume of mice were measured twice weekly. In addition, a previously reported oncogene-induced, sorafenib-resistant HCC mouse model was used in the current study to examine the antitumor activities of synthesized compounds. Briefly, plasmids including transposase (pCMV(CAT)T7-SB100), human Akt1, and luciferase (pKT2/CLP-AKT-2A-OVA-HBc-HBs-LUC) and the N-Ras V12 mutant (pT/Caggs-NRASV12) were hydrodynamically injected (HDI) and the liver was monitored for the appearance of HCC. HCC mice with a total flux of more than 1 × 10^9 photons/s from IVIS imaging were used as treatment conjugates. The indicated conjugate was administered intravenously at 1 mg/kg 3 times per week over 2 weeks. IVIS imaging was repeatedly performed to follow tumor progression, and tumor tissue from treated HCC mice was collected for histological examination and RNA extraction after administration."}, "[5]": {"conditions": "male ICR mice (n = 3), 5 mg/kg i.v."}}, "note": "Entries after “also recorded” stand apart in the source; their conditions may differ."}
{"smiles": "COc1cc2cc(c1Cl)N(C)C(=O)CC(OC(=O)C(C)N(C)C(=O)CCSC(=O)c1ccc(CN(CCOCCOCCNC(=O)c3ccc(CN(CCCCOc4cc(CN(Cc5ccccn5)Cc5ccccn5)cc(CN(Cc5ccccn5)Cc5ccccn5)c4)C(=O)C4(c5ccc(Cl)cc5)CCCCC4)cc3)C(=O)C3(c4ccc(Cl)cc4)CCCCC3)cc1)C1(C)OC1C(C)C1CC(O)(NC(=O)O1)C(OC)C=CC=C(C)C2.O=[N+]([O-])[O-].O=[N+]([O-])[O-].O=[N+]([O-])[O-].O=[N+]([O-])[O-].[Zn+2].[Zn+2]", "note": "(stereo not drawn) [Zn8_DM1]", "values": [{"measurement": "cleavage of the maytansinoid after incubation with plasma", "setting": "[1]", "value": "No cleavage"}, {"measurement": "AUC (0–24 h), intact conjugate", "setting": "[2]; [5]", "value": "Intact Conjugate: 161,538 ng/mL·h"}, {"measurement": "CL", "setting": "[2]; [5]", "value": 0.5, "unit": "mL/min/kg"}, {"measurement": "Vss", "setting": "[2]; [5]", "value": 0.6, "unit": "L/kg"}, {"measurement": "AUC (0–24 h), released payload (DM1 or DM4)", "setting": "[2]; male ICR mice (n = 3), 5 mg/kg i.v. of the conjugate", "value": "DM1: 500 ng/mL·h"}, {"measurement": "AUC ratio between intact conjugate and released payload", "setting": "[2]; within 24 h in circulation, 5 mg/kg i.v.", "value": "large AUC ratio"}, {"measurement": "fold attenuation in cytotoxicity relative to parent payload", "setting": "[3]", "value": "2.5–6 fold"}, {"measurement": "anti-HCC1806 tumor growth activity", "setting": "[4]; 1 mg/kg i.v. twice weekly for 2 weeks, tumors 200–250 mm^3", "value": "significant activities; also recorded: shrinkage of HCC1806 tumor growth"}, {"measurement": "effect on large HCC1806 tumors", "setting": "[4]; 2 mg/kg per week for two weeks, tumors ~900 mm^3", "value": "could readily arrest or shrink the growth of larger tumors"}]}
